Results reported in patent US20100167270.

How the values were obtained:
[1] = system: hMPV F protein of rhMPV/NL/1/00/101P (RQPR cleavage motif)
[2] = system: hMPV F protein of rhMPV/NL/1/00/101S (RQSR cleavage motif)
[3] = system: hMPV F protein of rhMPV/NL/1/99/101S (subtype B1)

With TPCK trypsin (Sigma) the “cleavage of vectored hMPV F (b/h PIV3), Western blot” value [1] was “In the presence of trypsin, the vectored F proteins of both hMPV/NL/1/00/101P and hMPV/NL/1/00/101S were partially cleaved to the same extent as the F protein expressed from the wt hMPV/NL/1/00”, the “cleavage of hMPV F (F0 to F1), Western blot” value [2] was “hMPV F containing 101S was cleaved only when the protein was exposed to trypsin” and the “cleavage of vectored hMPV F (b/h PIV3), Western blot” value [2] was “In the presence of trypsin, the vectored F proteins of both hMPV/NL/1/00/101P and hMPV/NL/1/00/101S were partially cleaved to the same extent as the F protein expressed from the wt hMPV/NL/1/00”. For the same substance, the “cleavage of hMPV F (F0 to F1), Western blot” value [3] was “hMPV F/101S showed no cleavage in the absence of trypsin, but in the presence of trypsin, the F1 fragment was readily detected”.
